Laboratory results published in publication PMC8060857.

Biological target: HR-N1, SARS S protein amino acids 882-973 (SARS-CoV (Urbani strain)) (UniProt P59594)
Assay: AUC

**Q.** With “HR-N1, SARS S protein amino acids 882-973 (from UniProt P59594 882-973) (domain or fragment)” as the substance, how does the stoichiometry N read?
**A.** The stoichiometry N was 4.
